Key:
[1] = biological target: chicken MDM2_(204-298) (chicken)
[2] = ultracentrifugation, far-UV CD and NMR; ref [21], [22]; cited from earlier work
From the text: The striking phenotypic differences associated with the B0, B1, and B2 alleles imply that the two missense mutations must affect ARF function since all three alleles share the two non-coding changes associated with Sex-linked barring (Fig 1). To learn more about the specific effects of the coding ARF mutations we performed biophysical studies on peptides corresponding to the N-terminus of wild-type and mutant chicken ARF (ARF1-14^WT, ARF1-14^V9D, ARF1-14^R10C) and purified chicken MDM2_204-298. Previously, using a combination of ultracentrifugation, far-UV circular dichroism (CD) and NMR exper ...

Question: For “ARF_(1-14)^V9D peptide (N-terminus of chicken ARF with V9D, B1 allele) (from UniProt A0A8V0X483 1-14)”, which p53-luc luciferase reporter activity in U2OS cells transfected with chicken ARF (coding region, pcDNA3.1) carrying V9D, compared to wild-type chicken ARF (% of wild type) [1] is on record?
Answer: 58

Question: With “ARF_(1-14)^R10C peptide (N-terminus of chicken ARF with R10C, B2 allele) (from UniProt A0A8V0X483 1-14)” as the substance, how does the p53-luc luciferase reporter activity in U2OS cells transfected with chicken ARF (coding region, pcDNA3.1) carrying R10C, compared to wild-type chicken ARF (% of wild type) [1] read?
Answer: 77

Question: With “MDM2_210-304: human MDM2 XP_005268929 residues 210-304, corresponding to chicken MDM2_204-298” as the substance, how does the “structure in free state” value [2] read?
Answer: intrinsically disordered in their free states
